In this test the target is Cdc2MsB, A-type cyclin-dependent kinase of Medicago sativa (two-hybrid bait, GAL4 DNA binding domain fusion) (Medicago sativa, UniProt P04386 1-147; Q05006 1-294). The test is described as follows: yeast two-hybrid (growth on selective medium, beta-galactosidase). From the text: FIG. 5. Interaction in a yeast two-hybrid assay of alfalfa Cdc2-type or Cdc2-related kinases and different D-type cyclins and myosin. The different Cdc2Ms kinase cDNAs are cloned in the pGBT9 bait vector and the cDNAs of the interacting partners in the pGAD424 activation domain vector. (A) Growth of PJ69-4a yeast cells transformed with expression vectors comprising the indicated protein coding sequences on the agar surface of a selective medium lacking tryptophan, leucine, adenine and histidine. The relative growth values were also determined in liquid cultures and are numerically indicated. (B) Quantification of β-galactosidase enzyme acitivity of yeast strains described in (A).
The yeast strain PJ69-4A [MATa trp1-901, leu2-3,112 ura3-52, his3-200 gal4delta, gal80delta GAL2-ADE2, LYS2:: GAL1-HIS3, met2::GAL7-lacZ] (James et al. 1996), which contains three reporter genes (HIS3, ADE2 and lacZ), was used in library screening, growth tests and β-galactosidase assays. Transformation of yeast with pGBT9, pGAD424, pBD-GAL4 and pAD-GAL4 constructs was performed as described by Schiesti and Gietz (1989). The transformation mixture was plated on yeast dropout selection media either lacking leucine and tryptophan (SD-Trp-Leu) for testing the transformation efficiency or on media lacking leucine, tryptophan and histidine, for testing protein-protein interactions. […]

We go through one molecule from patent publication US20050050591A1 (published 2005).

B1: MtCycDm, novel D-type cyclin of Medicago truncatula (two-hybrid prey, GAL4 activation domain fusion) (other, not shown: large carriers)
chain: MIEEEQLPAILMPSDCELLCGEDSSEVLTGDLPECSSDLDSSSSSQLPSSSLFAEEEEDSIAVFIEHEFKFVPGFDYVSRFQSRSLESSTREEAIAWILKVHEYYGFQPLTAYLSVNYMDRFLDSRPLPGIKWMATATFICCMFVFSSKDGGPLVPSLLDFQIEGAKYIFQPRTMLIMELLVLTILDWRLRSITHLVSSVSLRATRFTGTFNHFIISRATEIILSNIRDASFLTYRPSCIAAAAILSAANEIPNWSFVNPEHAESWCEGLSKEKIIGCYELIQEIVSSNNRRNAPKVLPQLRVTARTTRWSTVSSLSSSPSSSSSPSYSLSYKKRKLNSCFWVDVDKGNSEGREKKQTR
notes: Tested only as a yeast two-hybrid fusion; The order GAL4 domain then insert follows the vector design; also called cyclin D of the invention; MTCYCDM gene product
B1: the binding result is reported as “no binding”.
